Experimental data as given in the supplement of paper PMC10065799, “High-throughput profiling of sequence recognition by tyrosine kinases and SH2 domains using bacterial peptide display” (eLife, 2023).

Experiments:
c-Src SH2 = test: SH2 binding enrichment of the phosphorylated peptide, bacterial display (enrichment ratio); higher = better substrate or ligand; peptides without Tyr show the background
SHP2-C SH2 = test: as above
Grb2 SH2 = Grb2 SH2 (UniProt P62993); test: as above
c-Abl (mouse) = test: phosphorylation enrichment, bacterial display (enrichment ratio); higher = better substrate or ligand; peptides without Tyr show the background
EPHB1 = EPHB1 (UniProt P54762); test: as above
Fer (mouse) = test: as above
Hck = Hck (UniProt P08631); test: as above
Hck, sequence (P08631 whole entry, looked up): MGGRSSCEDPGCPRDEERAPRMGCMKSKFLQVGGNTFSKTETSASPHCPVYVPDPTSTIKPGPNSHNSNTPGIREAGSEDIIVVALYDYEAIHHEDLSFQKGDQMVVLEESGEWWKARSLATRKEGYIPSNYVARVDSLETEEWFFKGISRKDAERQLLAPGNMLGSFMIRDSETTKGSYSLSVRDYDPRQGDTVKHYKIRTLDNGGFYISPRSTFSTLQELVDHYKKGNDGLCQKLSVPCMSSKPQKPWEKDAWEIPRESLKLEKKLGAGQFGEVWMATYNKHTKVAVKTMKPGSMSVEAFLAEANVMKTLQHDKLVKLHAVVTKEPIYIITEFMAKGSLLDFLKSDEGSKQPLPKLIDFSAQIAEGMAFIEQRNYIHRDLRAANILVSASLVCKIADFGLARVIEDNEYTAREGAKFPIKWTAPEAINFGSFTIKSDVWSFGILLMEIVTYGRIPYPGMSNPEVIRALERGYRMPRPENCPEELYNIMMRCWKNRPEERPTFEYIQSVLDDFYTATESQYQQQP

FGFR1 = FGFR1 (UniProt P11362); test: as above
FGFR1, sequence (P11362 whole entry, looked up): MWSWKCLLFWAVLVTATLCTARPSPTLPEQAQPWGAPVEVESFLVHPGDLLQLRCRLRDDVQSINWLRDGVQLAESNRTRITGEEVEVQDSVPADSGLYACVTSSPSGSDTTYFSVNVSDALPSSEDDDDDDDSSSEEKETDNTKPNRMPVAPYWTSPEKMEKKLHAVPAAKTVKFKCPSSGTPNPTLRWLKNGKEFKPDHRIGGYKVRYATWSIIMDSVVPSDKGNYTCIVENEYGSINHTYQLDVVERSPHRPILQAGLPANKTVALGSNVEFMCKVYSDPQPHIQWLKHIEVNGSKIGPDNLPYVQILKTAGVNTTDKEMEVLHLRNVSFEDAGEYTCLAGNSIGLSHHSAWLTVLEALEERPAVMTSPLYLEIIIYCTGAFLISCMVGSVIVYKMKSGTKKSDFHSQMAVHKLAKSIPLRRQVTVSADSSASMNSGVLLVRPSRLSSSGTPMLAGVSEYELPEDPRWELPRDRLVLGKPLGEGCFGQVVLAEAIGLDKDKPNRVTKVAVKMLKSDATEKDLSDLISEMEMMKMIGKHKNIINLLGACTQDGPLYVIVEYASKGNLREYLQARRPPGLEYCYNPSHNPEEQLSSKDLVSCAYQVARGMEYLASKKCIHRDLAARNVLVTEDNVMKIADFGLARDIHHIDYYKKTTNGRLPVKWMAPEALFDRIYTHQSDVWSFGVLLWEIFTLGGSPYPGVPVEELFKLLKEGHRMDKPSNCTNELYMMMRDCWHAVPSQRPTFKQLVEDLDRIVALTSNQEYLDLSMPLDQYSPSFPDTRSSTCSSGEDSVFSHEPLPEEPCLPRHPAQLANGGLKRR

Fyn = Fyn (UniProt P06241); test: as above
Fyn, sequence (P06241 whole entry, looked up): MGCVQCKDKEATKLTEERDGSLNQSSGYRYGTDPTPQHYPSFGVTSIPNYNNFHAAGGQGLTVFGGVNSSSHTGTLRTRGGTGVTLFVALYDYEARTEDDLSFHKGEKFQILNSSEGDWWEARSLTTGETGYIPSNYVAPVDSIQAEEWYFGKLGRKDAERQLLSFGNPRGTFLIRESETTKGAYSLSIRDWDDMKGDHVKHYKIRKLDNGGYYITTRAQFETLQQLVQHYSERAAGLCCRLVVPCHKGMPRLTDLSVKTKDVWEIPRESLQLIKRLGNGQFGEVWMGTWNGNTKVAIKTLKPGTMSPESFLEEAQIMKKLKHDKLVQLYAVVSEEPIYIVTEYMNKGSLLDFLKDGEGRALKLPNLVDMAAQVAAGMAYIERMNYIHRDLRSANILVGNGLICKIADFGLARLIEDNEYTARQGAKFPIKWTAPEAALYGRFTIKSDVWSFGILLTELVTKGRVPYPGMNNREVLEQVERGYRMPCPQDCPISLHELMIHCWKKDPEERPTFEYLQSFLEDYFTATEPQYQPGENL

Jak2 = Jak2 (UniProt O60674); test: as above
Jak2, sequence (O60674 whole entry, looked up): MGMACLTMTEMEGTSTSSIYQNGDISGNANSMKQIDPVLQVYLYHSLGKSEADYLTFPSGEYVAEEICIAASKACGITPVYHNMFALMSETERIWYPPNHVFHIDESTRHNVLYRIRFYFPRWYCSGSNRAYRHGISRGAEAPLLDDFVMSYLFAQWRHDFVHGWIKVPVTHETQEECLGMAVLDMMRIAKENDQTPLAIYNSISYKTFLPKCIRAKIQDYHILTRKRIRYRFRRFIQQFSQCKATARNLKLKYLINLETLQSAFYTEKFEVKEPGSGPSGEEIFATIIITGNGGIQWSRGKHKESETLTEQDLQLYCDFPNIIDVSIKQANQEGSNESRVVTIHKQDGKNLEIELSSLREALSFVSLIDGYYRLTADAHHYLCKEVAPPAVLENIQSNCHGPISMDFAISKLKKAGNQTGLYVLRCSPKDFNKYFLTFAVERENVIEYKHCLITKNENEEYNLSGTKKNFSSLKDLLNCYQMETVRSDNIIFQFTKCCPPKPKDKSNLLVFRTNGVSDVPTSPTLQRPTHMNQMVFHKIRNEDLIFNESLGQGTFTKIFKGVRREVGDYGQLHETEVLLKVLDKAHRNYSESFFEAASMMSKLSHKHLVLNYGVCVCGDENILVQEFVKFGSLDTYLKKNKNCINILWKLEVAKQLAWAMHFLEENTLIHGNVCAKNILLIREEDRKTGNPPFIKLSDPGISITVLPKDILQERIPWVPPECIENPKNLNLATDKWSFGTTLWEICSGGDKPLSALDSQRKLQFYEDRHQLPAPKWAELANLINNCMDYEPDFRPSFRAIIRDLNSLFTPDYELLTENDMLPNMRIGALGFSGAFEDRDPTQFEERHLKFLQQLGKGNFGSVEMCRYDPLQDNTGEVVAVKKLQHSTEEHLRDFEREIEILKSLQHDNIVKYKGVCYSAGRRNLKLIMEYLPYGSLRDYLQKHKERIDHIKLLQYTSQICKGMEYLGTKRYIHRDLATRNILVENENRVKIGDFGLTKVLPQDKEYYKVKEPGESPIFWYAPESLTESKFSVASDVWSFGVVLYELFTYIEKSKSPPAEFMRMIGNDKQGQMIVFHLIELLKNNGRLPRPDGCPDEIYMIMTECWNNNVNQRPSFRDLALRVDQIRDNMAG

Fes = Fes (UniProt P07332); test: as above
AncSZ = test: as above
FGFR3 = FGFR3 (UniProt P22607); test: as above
FGFR3, sequence (P22607 whole entry, looked up): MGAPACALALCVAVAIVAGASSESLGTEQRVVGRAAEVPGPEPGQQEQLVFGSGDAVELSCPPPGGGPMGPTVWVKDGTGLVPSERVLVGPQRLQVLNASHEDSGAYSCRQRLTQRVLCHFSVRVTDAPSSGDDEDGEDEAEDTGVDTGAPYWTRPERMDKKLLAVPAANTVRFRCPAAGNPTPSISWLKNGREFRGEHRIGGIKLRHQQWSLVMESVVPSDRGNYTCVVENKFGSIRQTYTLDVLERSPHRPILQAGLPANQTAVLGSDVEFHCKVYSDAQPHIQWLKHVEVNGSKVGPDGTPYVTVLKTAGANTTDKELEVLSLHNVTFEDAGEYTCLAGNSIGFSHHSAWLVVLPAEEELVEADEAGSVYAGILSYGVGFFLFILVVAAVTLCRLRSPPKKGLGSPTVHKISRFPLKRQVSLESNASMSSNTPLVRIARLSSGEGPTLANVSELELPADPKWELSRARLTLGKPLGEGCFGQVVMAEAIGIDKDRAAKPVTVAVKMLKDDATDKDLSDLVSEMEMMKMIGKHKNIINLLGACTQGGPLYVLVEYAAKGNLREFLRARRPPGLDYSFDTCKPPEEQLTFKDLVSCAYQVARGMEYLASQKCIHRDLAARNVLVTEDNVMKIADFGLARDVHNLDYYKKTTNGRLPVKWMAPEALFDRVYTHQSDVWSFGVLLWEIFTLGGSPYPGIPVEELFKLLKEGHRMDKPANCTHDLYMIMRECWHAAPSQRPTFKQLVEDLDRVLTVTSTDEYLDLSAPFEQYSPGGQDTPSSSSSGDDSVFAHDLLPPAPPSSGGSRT

EPHB2 = EPHB2 (UniProt P29323); test: as above
EPHB2, sequence (P29323 whole entry, looked up): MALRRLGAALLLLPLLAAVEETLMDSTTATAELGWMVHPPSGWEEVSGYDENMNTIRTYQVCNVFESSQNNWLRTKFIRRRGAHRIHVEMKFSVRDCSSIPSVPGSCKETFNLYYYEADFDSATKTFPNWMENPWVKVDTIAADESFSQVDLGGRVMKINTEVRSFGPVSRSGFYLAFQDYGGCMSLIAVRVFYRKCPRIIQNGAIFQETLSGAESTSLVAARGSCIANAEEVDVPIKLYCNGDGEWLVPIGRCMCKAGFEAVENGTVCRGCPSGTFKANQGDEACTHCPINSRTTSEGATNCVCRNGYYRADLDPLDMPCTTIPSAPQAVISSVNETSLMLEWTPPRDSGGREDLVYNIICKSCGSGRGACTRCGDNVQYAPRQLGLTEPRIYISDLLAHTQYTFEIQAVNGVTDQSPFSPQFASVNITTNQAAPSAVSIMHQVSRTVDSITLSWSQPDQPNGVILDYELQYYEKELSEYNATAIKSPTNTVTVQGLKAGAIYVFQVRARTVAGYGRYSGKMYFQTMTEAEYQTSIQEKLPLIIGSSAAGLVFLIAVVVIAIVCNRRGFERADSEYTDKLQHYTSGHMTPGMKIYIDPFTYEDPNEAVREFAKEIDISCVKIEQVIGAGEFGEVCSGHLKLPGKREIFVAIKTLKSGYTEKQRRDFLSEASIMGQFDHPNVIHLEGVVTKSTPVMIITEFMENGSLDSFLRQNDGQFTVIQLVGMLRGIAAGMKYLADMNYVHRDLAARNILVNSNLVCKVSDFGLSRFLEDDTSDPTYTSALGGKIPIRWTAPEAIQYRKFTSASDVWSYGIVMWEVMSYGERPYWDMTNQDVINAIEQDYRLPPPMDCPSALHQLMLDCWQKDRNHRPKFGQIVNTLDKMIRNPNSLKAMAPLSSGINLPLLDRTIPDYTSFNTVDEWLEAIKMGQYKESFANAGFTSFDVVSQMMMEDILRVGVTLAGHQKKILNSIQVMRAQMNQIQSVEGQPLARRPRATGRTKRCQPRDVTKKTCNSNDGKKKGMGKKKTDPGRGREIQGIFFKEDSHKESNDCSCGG

MERTK = MERTK (UniProt Q12866); test: as above
c-Src = test: as above
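For SH2 binding enrichment of the phosphorylated peptide, bacterial display in this document: peptide library displayed on the E. coli surface as eCPX fusions, selected cells deep-sequenced, score is each peptide's frequency after selection divided by its frequency in the input.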
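For phosphorylation enrichment, bacterial display in this document: 11-residue human phosphosite peptides and single-mutation variants displayed on the E. coli surface, counted by deep sequencing, each peptide's frequency after selection divided by its frequency in the unselected input library; frequency after pTyr selection over input frequency; kinase dosed for 20-30% of maximal phosphorylation in three min.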

| Sequence | SH2 binding enrichment (c-Src SH2) | SH2 binding enrichment (SHP2-C SH2) | SH2 binding enrichment (Grb2 SH2) | phosphorylation enrichment (c-Abl (mouse)) | phosphorylation enrichment (EPHB1) | phosphorylation enrichment (Fer (mouse)) | phosphorylation enrichment (Hck) | phosphorylation enrichment (FGFR1) | phosphorylation enrichment (Fyn) | phosphorylation enrichment (Jak2) | phosphorylation enrichment (Fes) | phosphorylation enrichment (AncSZ) | phosphorylation enrichment (FGFR3) | phosphorylation enrichment (EPHB2) | phosphorylation enrichment (MERTK) | phosphorylation enrichment (c-Src) |
| --- | --- | --- | --- | --- | --- | --- | --- | --- | --- | --- | --- | --- | --- | --- | --- | --- |
| NPETCYQRLKK [TK2_Y190] | 0.692 | 0.739 | 0.787 | 0.839 | 0.527 | 0.432 | 0.736 | 0.481 | 0.412 | 0.966 | 1.03 | 1.03 | 0.545 | 0.603 | 0.469 | 0.483 |
| NQDRTYFESVR [SPEN_Y632_YF] | 0.555 | 0.727 | 0.886 | 0.618 | 0.507 | 0.665 | 0.573 | 0.602 | 0.571 | 0.865 | 0.931 | 0.852 | 0.69 | 0.617 | 0.469 | 0.678 |
| NQDRTYYERVR [SPEN_Y632_S635R] | 3.98 | 1.04 | 0.901 | 0.525 | 0.411 | 0.511 | 2.31 | 0.457 | 0.606 | 0.499 | 0.639 | 0.617 | 0.486 | 0.467 | 0.452 | 0.896 |
| NQELIYEGRRL [TBK1_Y354] | 0.522 | 0.612 | 0.735 | 5 | 0.518 | 8.54 | 9.83 | 0.472 | 8.61 | 0.581 | 0.763 | 0.755 | 0.808 | 0.668 | 0.581 | 7.87 |
| NRLNDYIFSFD [RARS1_Y516] | 0.506 | 0.778 | 1.15 | 0.789 | 0.538 | 0.424 | 0.469 | 0.721 | 0.461 | 0.977 | 1.03 | 1.09 | 0.729 | 0.538 | 0.475 | 0.555 |
| NSRFTCKLEVK [USH2A_Y3747_Y3747C_YF] | 0.395 | 0.612 | 0.768 | 1.48 | 0.629 | 0.533 | 0.508 | 0.563 | 0.378 | 1.79 | 1.66 | 1.45 | 1 | 0.618 | 0.449 | 0.504 |
| NTFEKYWLFFQ [GATM_Y103_P105L_YF] | 0.758 | 0.886 | 0.975 | 1 | 0.721 | 0.478 | 0.68 | 0.761 | 0.501 | 1.2 | 1.44 | 1.29 | 1 | 0.682 | 0.544 | 0.538 |
| NTGGFYDLFGG [PTPN11_Y63_D61G_YF] | 0.677 | 0.784 | 1.09 | 0.836 | 0.829 | 3.82 | 5.68 | 0.478 | 7.59 | 1.1 | 1.18 | 1.05 | 0.719 | 0.899 | 9.2 | 4.17 |
| NTGLDYIKFTW [HRH1_Y386] | 0.475 | 0.811 | 0.892 | 0.902 | 0.647 | 0.402 | 0.495 | 1.64 | 0.39 | 1.92 | 1.31 | 1.37 | 1.26 | 0.742 | 0.605 | 0.612 |
| NTGLEYIKFTW [HRH1_Y386_D385E] | 0.614 | 0.778 | 1.11 | 0.657 | 0.572 | 0.449 | 0.58 | 0.76 | 0.531 | 1.37 | 1.09 | 1.16 | 0.851 | 0.633 | 0.474 | 0.495 |
| NTQRPHFKGGG [TYROBP_Y111_Y111H_YF] | 0.925 | 0.956 | 1.22 | 1.01 | 0.378 | 0.293 | 0.407 | 0.318 | 0.286 | 0.553 | 0.735 | 0.447 | 0.443 | 0.632 | 0.353 | 0.448 |
| NTYEKYLGEEY [TF_Y669] | 2.41 | 0.722 | 0.971 | 0.935 | 0.601 | 0.523 | 0.688 | 0.472 | 0.974 | 0.99 | 1.06 | 1.12 | 0.756 | 0.74 | 0.382 | 1.03 |
| NTYEKYWLFYQ [GATM_Y103_P105L] | 0.807 | 1.12 | 0.788 | 0.8 | 4.77 | 0.874 | 1.36 | 1.7 | 1.5 | 1.18 | 1.39 | 1.26 | 1.65 | 2.94 | 1.78 | 2.23 |
| NVFGNYNQQPS [HNRNPA2B1_Y306_D302V] | 0.584 | 0.682 | 0.822 | 0.674 | 0.468 | 0.315 | 0.484 | 0.356 | 0.401 | 0.687 | 0.713 | 0.492 | 0.471 | 0.375 | 0.375 | 0.384 |
| PARLEYFENEK [IRS1_Y46_YF] | 0.647 | 0.817 | 0.834 | 0.999 | 0.714 | 0.661 | 0.709 | 1.03 | 0.471 | 2 | 1.61 | 1.35 | 0.957 | 0.777 | 0.784 | 0.684 |
| PCLLRYLQLDF [ASB10_Y457_R453C] | 1.26 | 1.26 | 1.12 | 1.12 | 0.833 | 0.968 | 0.783 | 1.18 | 0.497 | 1.51 | 1.72 | 1.5 | 1.14 | 0.538 | 0.733 | 0.502 |
| PDDPSYSLVDD [PSTPIP2_Y323_N322S] | 3.29 | 0.724 | 1.29 | 1.03 | 0.999 | 0.728 | 0.679 | 0.899 | 0.885 | 1.75 | 1.53 | 1.6 | 1.08 | 0.8 | 0.563 | 0.91 |

| Sequence | SH2 binding enrichment (c-Src SH2) | SH2 binding enrichment (SHP2-C SH2) | SH2 binding enrichment (Grb2 SH2) | phosphorylation enrichment (c-Abl (mouse)) | phosphorylation enrichment (EPHB1) | phosphorylation enrichment (Fer (mouse)) | phosphorylation enrichment (Hck) | phosphorylation enrichment (FGFR1) | phosphorylation enrichment (Fyn) | phosphorylation enrichment (Jak2) | phosphorylation enrichment (Fes) | phosphorylation enrichment (AncSZ) | phosphorylation enrichment (FGFR3) | phosphorylation enrichment (EPHB2) | phosphorylation enrichment (MERTK) | phosphorylation enrichment (c-Src) |
| --- | --- | --- | --- | --- | --- | --- | --- | --- | --- | --- | --- | --- | --- | --- | --- | --- |
| PDSVDYRKKGF [CTSK_Y121_YF] | 0.625 | 0.638 | 0.755 | 0.391 | 0.468 | 0.521 | 0.55 | 0.402 | 0.32 | 0.49 | 0.536 | 0.524 | 0.88 | 0.646 | 0.368 | 0.366 |
| PECEWYKNGVK [TTN_Y2112] | 0.39 | 0.472 | 0.811 | 1.31 | 0.759 | 0.719 | 0.73 | 0.821 | 0.692 | 1.32 | 1.96 | 1.55 | 1.19 | 1.05 | 0.532 | 0.555 |
| PESCLYKESWI [IQGAP2_Y630_L635I] | 0.532 | 0.315 | 0.827 | 1.48 | 0.931 | 1.26 | 0.872 | 1.25 | 0.493 | 1.54 | 1.97 | 1.18 | 1.17 | 1.2 | 0.6 | 0.825 |
| PHQTIYSALMI [FGF23_Y70] | 0.495 | 0.598 | 0.68 | 20.6 | 5.93 | 20.3 | 12.8 | 1.88 | 12.7 | 1.7 | 3.94 | 1.26 | 1.61 | 4.45 | 13.1 | 10.4 |
| PHRSIYFSSPK [MPG_Y75_Y71H] | 0.46 | 0.609 | 1.01 | 0.862 | 0.674 | 0.663 | 1.48 | 0.803 | 0.982 | 0.584 | 0.859 | 0.498 | 0.927 | 0.61 | 0.687 | 0.786 |
| PIPAAYNKFDQ [CDC73_Y290_R292K_YF] | 0.509 | 0.86 | 0.946 | 0.684 | 0.687 | 0.798 | 0.661 | 0.57 | 0.745 | 0.653 | 0.864 | 1.54 | 0.925 | 1.39 | 0.415 | 0.611 |
| PKGTGYIKTES [STAT1_Y701_L706S] | 0.425 | 0.427 | 0.997 | 0.868 | 0.504 | 0.392 | 0.525 | 0.604 | 0.466 | 1.22 | 1.2 | 0.588 | 0.487 | 0.449 | 0.553 | 0.601 |
| PLAVPYLDKPP [JMJD7_Y31] | 0.398 | 1.1 | 0.867 | 0.658 | 0.355 | 0.614 | 0.711 | 0.504 | 0.46 | 0.742 | 1.06 | 0.825 | 0.769 | 0.608 | 0.614 | 0.549 |
| PLDAEYFTLQI [TP53_Y327_G325A] | 0.43 | 0.738 | 0.779 | 1.29 | 0.876 | 0.883 | 1.57 | 8.68 | 2.47 | 3.1 | 1.63 | 2.57 | 6.59 | 0.826 | 0.603 | 4.2 |
| PLDGEYFILQI [TP53_Y327_T329I] | 0.521 | 0.794 | 0.651 | 1.24 | 2.02 | 0.978 | 1.88 | 14.5 | 3.7 | 2.88 | 2 | 4.19 | 12.9 | 2.04 | 1.22 | 2.88 |
| PLDGEYFTLPI [TP53_Y327_Q331P] | 0.478 | 0.61 | 0.717 | 25 | 16.6 | 1.66 | 15.7 | 36.5 | 9.28 | 12.1 | 2.87 | 12.6 | 32.2 | 19.1 | 3.81 | 9.02 |
| PLFKICVAELI [MRPL28_Y230_Y230C] | 0.496 | 0.829 | 0.926 | 0.718 | 1.06 | 0.707 | 0.692 | 0.499 | 0.73 | 1.31 | 1.57 | 1.2 | 1.14 | 0.888 | 0.469 | 0.394 |
| PLGKDYRKVEG [MAP1A_Y1909_A1912V] | 0.385 | 0.706 | 0.556 | 1.66 | 0.561 | 0.456 | 0.513 | 0.518 | 0.74 | 1.52 | 0.883 | 1.27 | 0.685 | 0.768 | 0.741 | 1.53 |
| PMFHSYVSLPF [PLXNA2_Y293_K289M] | 3.37 | 1.4 | 0.745 | 0.712 | 1.98 | 0.789 | 3.34 | 3.85 | 1.08 | 2.01 | 1.56 | 1.4 | 2.26 | 1.86 | 1.2 | 0.751 |
| PPAPRYHHSAV [LZTR1_Y119] | 1.07 | 1.1 | 1.31 | 0.677 | 0.432 | 0.587 | 0.717 | 0.38 | 0.457 | 0.781 | 1.26 | 0.655 | 0.79 | 0.44 | 0.351 | 0.384 |
| PPGRSYSPCDY [TNS1_Y793_Y796C] | 1.26 | 0.772 | 1 | 0.832 | 0.512 | 0.602 | 0.586 | 0.73 | 0.922 | 1.02 | 1.16 | 1.19 | 0.799 | 0.83 | 0.638 | 0.581 |
